B1: human lung tissue nanobody Nb43 (VHH)
VHH: MQAQLAVQLQLVESGGGLVQSGGSLRLSCAASGFTFNDYRMSWVRQAPGKGLEWVSDINSGGSSTYYADSVKGRFTVSRDNAKNTLYLQMNSLKPEDTAIYYCVALLGRGCSGLVQGAFGPWGQGTQVTVSSAHHSEDPGPRGLAAAGAPVPYPDPLEPRAA
B2: human lung tissue nanobody Nb15 (VHH)
VHH: MQAQLAGQLQLVESGGGLVQPGGSLSVSCAVRGRDLDYYVIGWFRQAPGKEREGVSCINNSDDTTYYSDSVKGRFTISRDHAKNTVYLQMNNLKPEDTALYYCAADFDRLDFTVKAMCVMKFFYYWGQGTQVTVSSEPKTPKPQGPRGLAAAGAPVPYPDLEPRAA
B3: human lung tissue nanobody Nb17 (VHH)
VHH: MQAQLAVQLQLVESGGGLVQPGGSLRLACAASGFNLDDYADIGWFRQAPGKERERVLCITISDGTTYYEDSGKGRFSISTDIAKNTVFLQMDSLKAEDTAVYYCAGDPAPFCLYNTYVPRTWGQGTQVTVSSAHHSEDPGPRGLAAAGAPVPYPDPLEPRAA
notes: also called No. 17
B4: human lung tissue nanobody Nb11 (VHH)
VHH: MQAQLAGQLQLVESGGGLVQPGGSLRLSCTASKFHLDSYAVAWFRQTPGKEREAVSFINTSDDVTYFADSVKGRFTISRDNSKNTVYLQMNVLKPEDTSIYVCAAVRSPGPTGPSMQPMWVPDLYDYWGQGTQVTVSSAHHSEDPGPRGLAAAGAPVPYPDPLEPRAA

Biological target: T1, human pulmonary surfactant protein A (hSP-A) (human, UniProt Q8IWL2 21-248)
T1 construct: Native material from ground human lung tissue (supernatant of the lysate, called 'purified hSP-A'); It may hold both SP-A1 and SP-A2 gene products; also called human lung SP-A
Assay: ELISA with purified nanobody

T1 sequence (Q8IWL2 21-248 limits assumed): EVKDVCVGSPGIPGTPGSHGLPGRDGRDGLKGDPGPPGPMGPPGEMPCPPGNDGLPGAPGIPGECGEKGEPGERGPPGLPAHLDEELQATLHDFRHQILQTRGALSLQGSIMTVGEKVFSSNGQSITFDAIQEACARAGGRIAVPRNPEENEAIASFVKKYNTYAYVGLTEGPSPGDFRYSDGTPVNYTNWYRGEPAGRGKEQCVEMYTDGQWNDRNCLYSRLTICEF

**Q.** How did the “OD450 relative to negative control” value turn out when B1 was run?
**A.** 2 times the negative control

**Q.** For B2, which “OD450 relative to negative control” value is on record?
**A.** 2 times the negative control

**Q.** With B3 as the binder, how does the “OD450 relative to negative control” value read?
**A.** 2 times the negative control

**Q.** B4 was tested. Which “OD450 relative to negative control” value did it give?
**A.** 2 times the negative control

Biological target: T1, human pulmonary surfactant protein A …
Assay: indirect phage ELISA, plate coated with hSP-A, OD 450 nm

**Q.** For B1, which “affinity value relative to negative control” value is on record?
**A.** 3 times the negative control

**Q.** How did the “affinity value relative to negative control” value turn out when B2 was run?
**A.** 3 times the negative control

**Q.** How did the “affinity value relative to negative control” value turn out when B3 was run?
**A.** 3 times the negative control

**Q.** How did the “affinity value relative to negative control” value turn out when B4 was run?
**A.** 3 times the negative control

Reference: US20170058021A1 (SHANGHAI PULMONARY HOSPITAL, published 2017)
